Two molecules from article PMC10454306, “Genome-Wide Identification of GmSPS Gene Family in Soybean and Expression Analysis in Response to Cold Stress” can be followed below.

This data set concerns the target T1, GmICE1 conserved domain (GmICE1-His) (Glycine max, UniProt B8XJY5 275-465).
T1 sequence: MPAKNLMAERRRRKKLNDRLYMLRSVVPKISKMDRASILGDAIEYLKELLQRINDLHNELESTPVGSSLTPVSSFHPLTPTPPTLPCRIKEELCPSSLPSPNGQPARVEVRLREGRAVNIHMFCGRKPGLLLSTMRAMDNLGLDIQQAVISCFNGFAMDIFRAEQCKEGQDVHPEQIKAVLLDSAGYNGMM
The data set is described as follows: EMSA; weakened dose-dependently by unlabeled same-sequence competitor; EMSA kit (Thermo Fisher Scientific); buffer, salt, pH and temperature not stated. The settings on record: protein: recombinant; tags: His (PET-32a vector); chain copies: 2; label: biotin (forward strand); blunt. For orientation: In EMSA bound probe runs differently from free probe, usually more slowly.

B1: GmSPS18 promoter 50 bp probe (-68 to -117) (dsDNA)
DNA 1: GTCTACACGTGTGTATCTCCATGCCCCACCATTCCTGCCACGTGGCAGTG
DNA 2: CACTGCCACGTGGCAGGAATGGTGGGGCATGGAGATACACACGTGTAGAC
For B1, the binding result was “binds”.

B2: GmSPS8 promoter 50 bp probe (-66 to -115) (dsDNA)
DNA 1: AGTCTACACGTGTGTATCTCCATGGCCCACCATTCCTTGCCACGTGTCAA
DNA 2: TTGACACGTGGCAAGGAATGGTGGGCCATGGAGATACACACGTGTAGACT
Take B2: the binding result is “binds”.
